PMC11931385, “Structural and functional analysis of cancer-associated missense variants in the retinoblastoma protein pocket domain” (The Journal of Biological Chemistry, 2025)
No end group written: not given here. TMR = tetramethyl rhodamine dye

T1: Rb^P R668C (human, UniProt P06400 380-788, R668C)
T1 construct: also called variant 51
T1 sequence (looked up): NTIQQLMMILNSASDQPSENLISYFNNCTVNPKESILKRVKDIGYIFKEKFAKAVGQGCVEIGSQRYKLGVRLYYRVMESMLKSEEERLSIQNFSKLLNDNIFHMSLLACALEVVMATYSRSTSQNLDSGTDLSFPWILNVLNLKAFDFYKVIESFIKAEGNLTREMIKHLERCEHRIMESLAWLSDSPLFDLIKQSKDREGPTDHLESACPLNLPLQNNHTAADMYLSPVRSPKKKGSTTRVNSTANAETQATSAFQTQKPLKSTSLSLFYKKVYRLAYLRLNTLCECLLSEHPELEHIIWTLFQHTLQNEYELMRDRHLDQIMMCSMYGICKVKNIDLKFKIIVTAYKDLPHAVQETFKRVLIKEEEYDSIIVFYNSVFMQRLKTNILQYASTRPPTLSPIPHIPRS

T2: Rb^P R451H (human, UniProt P06400 380-788, R451H)
T2 construct: also called variant 6
T2 sequence (looked up): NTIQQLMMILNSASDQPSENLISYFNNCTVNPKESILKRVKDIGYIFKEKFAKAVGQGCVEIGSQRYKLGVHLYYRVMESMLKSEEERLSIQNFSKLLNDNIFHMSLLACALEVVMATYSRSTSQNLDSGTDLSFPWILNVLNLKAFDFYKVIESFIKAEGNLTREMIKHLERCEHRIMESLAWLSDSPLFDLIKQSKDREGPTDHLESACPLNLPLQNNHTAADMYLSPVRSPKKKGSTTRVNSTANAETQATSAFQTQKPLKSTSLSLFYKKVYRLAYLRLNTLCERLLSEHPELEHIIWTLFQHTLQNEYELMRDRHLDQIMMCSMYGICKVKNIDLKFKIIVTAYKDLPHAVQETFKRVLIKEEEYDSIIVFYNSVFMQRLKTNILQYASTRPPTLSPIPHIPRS

T3: Rb^P R611S (human, UniProt P06400 380-788, R611S)
T3 construct: also called variant 38
T3 sequence (looked up): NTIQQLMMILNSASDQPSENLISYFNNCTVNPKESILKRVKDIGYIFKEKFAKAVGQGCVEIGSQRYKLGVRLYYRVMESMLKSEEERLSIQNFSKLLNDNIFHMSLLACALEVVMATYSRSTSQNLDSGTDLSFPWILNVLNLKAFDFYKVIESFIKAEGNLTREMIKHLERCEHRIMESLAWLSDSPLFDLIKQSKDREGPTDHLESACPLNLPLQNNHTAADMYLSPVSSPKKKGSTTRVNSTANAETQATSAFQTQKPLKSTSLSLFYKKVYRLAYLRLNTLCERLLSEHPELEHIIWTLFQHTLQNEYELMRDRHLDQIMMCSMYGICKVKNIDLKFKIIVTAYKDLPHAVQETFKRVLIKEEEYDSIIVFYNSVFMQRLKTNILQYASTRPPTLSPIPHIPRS

T4: Rb^P E539D (human, UniProt P06400 380-788, E539D)
T4 construct: also called variant 24
T4 sequence (looked up): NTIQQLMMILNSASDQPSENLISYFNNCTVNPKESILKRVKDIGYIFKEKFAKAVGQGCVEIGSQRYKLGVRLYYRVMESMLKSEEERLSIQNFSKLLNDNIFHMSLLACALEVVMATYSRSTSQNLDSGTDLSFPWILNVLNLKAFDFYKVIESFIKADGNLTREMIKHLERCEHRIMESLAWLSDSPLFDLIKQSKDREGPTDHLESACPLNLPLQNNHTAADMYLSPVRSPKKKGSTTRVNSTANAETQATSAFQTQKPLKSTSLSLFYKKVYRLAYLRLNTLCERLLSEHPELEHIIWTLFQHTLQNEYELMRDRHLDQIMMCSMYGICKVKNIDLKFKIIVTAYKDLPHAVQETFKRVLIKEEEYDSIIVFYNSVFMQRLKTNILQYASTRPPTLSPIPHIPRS

T5: Rb^P A525G (human, UniProt P06400 380-788, A525G)
T5 construct: also called variant 20
T5 sequence (looked up): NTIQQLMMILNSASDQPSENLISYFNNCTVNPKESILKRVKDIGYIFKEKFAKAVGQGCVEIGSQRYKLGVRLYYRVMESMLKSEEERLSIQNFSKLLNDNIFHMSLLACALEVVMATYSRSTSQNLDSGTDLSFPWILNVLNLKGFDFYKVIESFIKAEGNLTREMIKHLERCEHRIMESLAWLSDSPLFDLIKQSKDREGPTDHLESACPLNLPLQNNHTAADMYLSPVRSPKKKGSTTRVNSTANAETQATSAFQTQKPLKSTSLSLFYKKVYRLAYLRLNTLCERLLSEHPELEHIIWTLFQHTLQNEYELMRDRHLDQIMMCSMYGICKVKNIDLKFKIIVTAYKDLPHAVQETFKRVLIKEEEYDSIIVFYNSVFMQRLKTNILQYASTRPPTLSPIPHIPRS

B1: TMR-E2F1^TD, peptide of the E2F1 transactivation domain (peptide)
peptide: {TMR}-GEGIRDLFDCDFGDLTPLD
notes: also called E2F^TD; source: synthetic peptide, bought: GenScript
B2: TMR-E7^LxCxE, LxCxE peptide of the E7 oncoprotein from HPV (peptide)
peptide: DLYCYEQLN
modifications: also: TMR label, position not given here
notes: source: synthetic peptide, bought: GenScript

Assays:
Assay in all cases: fluorescence polarisation; 25 °C; unlabeled Rb^P titrated against 1.5 nM TMR-E2F1^TD or 7.5 nM TMR-E7^LxCxE; 25 mM Tris pH 8.0, 200 mM NaCl, 1 mM DTT, 0.1% Tween-20; 2 min incubation; quadratic fit; apparent Kd for the variants, Kd for WT
Details in all cases: both partners purified
[1] = target: T1, Rb^P R668C
[2] = target: T2, Rb^P R451H
[3] = target: T3, Rb^P R611S
[4] = target: T4, Rb^P E539D
[5] = target: T5, Rb^P A525G

Binder	Kd [1]	Kd [2]	Kd [3]	Kd [4]	Kd [5]
B1	12 nM	29 nM	15 nM	55 nM	36 nM
B2	3 nM	9 nM	5 nM	7 nM	12 nM
